We go through nine molecules from patent US20230235048A1 (PROTHENA BIOSCIENCES, published 2023).

Positions count from the first letter of the chain named.

Broadly, the Kd is the concentration at which binding is half-saturated. By koff is commonly meant a measure of how fast the partners let go of each other. The kon is the rate constant with which the complex forms. Usually EC50 stands for the concentration at which the effect is half-maximal.

Test [1] deals with T1, extracellular domain (ECD) of recombinant human Sortilin with a C-terminal HIS tag (ECD-huSortilin-HIS) (human, UniProt Q99523 78-755).
T1 construct: Bought (R&D Systems); also called human sortilin-ECD; not shown: C-terminal HIS tag
T1 sequence: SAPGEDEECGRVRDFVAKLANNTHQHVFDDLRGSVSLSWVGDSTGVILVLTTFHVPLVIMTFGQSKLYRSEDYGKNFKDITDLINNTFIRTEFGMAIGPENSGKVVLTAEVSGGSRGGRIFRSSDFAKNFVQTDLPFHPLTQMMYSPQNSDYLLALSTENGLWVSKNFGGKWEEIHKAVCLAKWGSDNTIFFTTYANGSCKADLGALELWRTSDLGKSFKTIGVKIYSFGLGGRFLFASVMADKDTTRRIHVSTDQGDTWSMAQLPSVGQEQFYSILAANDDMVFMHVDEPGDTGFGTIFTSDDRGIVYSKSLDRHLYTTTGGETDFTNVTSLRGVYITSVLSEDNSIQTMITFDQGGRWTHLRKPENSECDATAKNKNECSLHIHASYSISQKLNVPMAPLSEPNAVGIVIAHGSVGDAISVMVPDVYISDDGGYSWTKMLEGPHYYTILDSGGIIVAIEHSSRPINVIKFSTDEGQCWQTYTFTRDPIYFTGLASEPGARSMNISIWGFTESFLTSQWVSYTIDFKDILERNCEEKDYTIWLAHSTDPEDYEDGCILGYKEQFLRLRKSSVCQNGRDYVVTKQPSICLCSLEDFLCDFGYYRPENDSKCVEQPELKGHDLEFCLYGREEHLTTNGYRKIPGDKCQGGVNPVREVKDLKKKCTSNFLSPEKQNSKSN
The test is described as follows: SPR (Biacore T200), mAb captured by anti-human antibody on CM5, Sortilin 0.1-300 nM as analyte, global 1:1 fit. The protocol: Analysis was performed using a Biacore T200 to compare the binding affinity of chimeric and humanized antibodies to recombinant human Sortilin. Anti-Human antibody was immobilized on sensor chip CM5 (GE Healthcare Life Sciences) via amine coupling, and humanized antibodies (ligand) were captured to a level to ensure a maximum binding of analyte of 50 RU (approximately 100 RU of ligand binding). Various concentrations of Sortilin (ranging from 0.1 nM to 300 nM) were passed over the captured ligand at 50 μL/min in running buffer (HBS+0.05% P-20, 1 mg/mL BSA) for 300s association time and 1200s dissociation time. Regeneration of the chip surface was accomplished by 2 short injections of 3M MgCl. Data was blank subtracted to both a sensor not containing ligand and 0 nM analyte concentration. Analysis was performed using a global 1:1 fit with Biacore Insight Evaluation software (v2.0) with bulk refractive index set to zero RU.

In test [2] the target is T1, extracellular domain (ECD) of …. The test is described as follows: ELISA, ECD-huSortilin-HIS coated at 1 ug/mL, goat anti-human IgG-HRP, chemiluminescence. Here is the method:
384-well ELISA plates were coated with 1 ug/mL recombinant ECD-huSortilin-HIS (20 uL/well) and incubated overnight at 4° C. all plates were blocked with 3% BSA in PBS for 1 hour at room temperature. Plates were then washed with Tris buffered saline containing 0.1% Tween20 (TBST) three times. 20 uL of humanized anti-Sortilin mAbs diluted 3-fold from 20 ug/mL to 0.3 ng/mL in 1% BSA in TBST were added to the wells, incubated for 1 hour at room temperature and then washed as above. Goat anti-human IgG specific-HRP (Jackson Immunoresearch) diluted 1:7000 in 1% BSA in TBST was then added at 20 uL per well to react with the bound antibodies and plates were incubated for 1 hour before being washed as above. Super signal Pico chemiluminescent ELISA substrate (ThermoFisher) was used for detection. 20 uL of substrate was added to each well and Relative Light Units (RLU) were measured immediately using the SpectraMax Paradigm (Molecular Devices). Data was analyzed and EC₅₀ was calculated using graphed Prism.
On the technique in general: An ELISA detects its analyte on a solid surface through an enzyme-linked reagent.

Test [3] has the same target. The test is described as follows: blocking ELISA, coated ECD-huSortilin-HIS; blocked ligand huPGRN-Biotin.
The target in test [4] is T2, human sortilin on the cell surface (recombinant huSortilin on HEK 293 cells; endogenous on U251MG cells) (human, UniProt Q99523 78-831).
T2 construct: whole, on cells; also called huSortilin expressing HEK293 cells; cell surface huSortilin
T2 sequence (looked up): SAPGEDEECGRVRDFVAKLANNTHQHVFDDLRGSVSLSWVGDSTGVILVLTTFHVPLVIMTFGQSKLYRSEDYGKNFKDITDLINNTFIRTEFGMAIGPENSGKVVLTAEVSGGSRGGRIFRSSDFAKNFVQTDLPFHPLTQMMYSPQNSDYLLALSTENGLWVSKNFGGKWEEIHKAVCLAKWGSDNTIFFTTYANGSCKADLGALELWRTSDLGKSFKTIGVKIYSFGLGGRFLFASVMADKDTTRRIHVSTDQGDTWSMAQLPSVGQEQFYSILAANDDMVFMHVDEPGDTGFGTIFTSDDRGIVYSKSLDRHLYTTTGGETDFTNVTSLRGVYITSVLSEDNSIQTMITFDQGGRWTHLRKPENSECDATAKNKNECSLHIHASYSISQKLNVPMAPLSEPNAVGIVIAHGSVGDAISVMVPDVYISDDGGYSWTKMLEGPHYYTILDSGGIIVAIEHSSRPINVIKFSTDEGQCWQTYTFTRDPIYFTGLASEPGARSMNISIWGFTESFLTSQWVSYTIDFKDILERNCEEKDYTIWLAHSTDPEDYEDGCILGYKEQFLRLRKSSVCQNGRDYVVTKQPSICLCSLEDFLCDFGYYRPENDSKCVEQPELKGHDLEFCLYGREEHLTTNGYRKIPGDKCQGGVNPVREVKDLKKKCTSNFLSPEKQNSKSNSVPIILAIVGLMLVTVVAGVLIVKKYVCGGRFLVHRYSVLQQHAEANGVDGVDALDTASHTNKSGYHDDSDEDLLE
Nature of the test: cell-based blocking titration (flow cytometry), huSortilin HEK293 cells; blocked ligand 30 nM huPGRN-Biotin. Here is the method:
Cells were cultured using standard methods. […] Cells were then washed twice in PBS+2% FBS and incubated for 30 minutes on ice with 50 uL per well 1:200 Steptavidin-APC (BD biosciences) in PBS+2% FBS. Cells were then washed as above and resuspended in 100 uL PBS+2% FBS. Data was acquired using the BD LSR II and analyzed using FlowJo software version 10.6 and Microsoft excel.
The cell-based blocking assay was repeated with the top 12 blocking mAbs using a dose titration from 67 nM to 0.4 nM. Blocking assay was carried out as above. Data was analyzed using FlowJo software version 10.6. and GraphPad Prism software.
In general terms: In flow cytometry, cells or beads pass a laser one at a time.

The target of test [5] is T1, extracellular domain (ECD) of …. Nature of the test: ELISA, Ab binding to hSortilin-ECD. Here is the method: Purified anti-huSortilin mAb binding to huSortilin was characterized by ELISA (ELISA protocol as in Example 1) using a 12 point titration of mAb concentration. mAbs were diluted 2-fold from a starting concentration of 67 nM and then added to ECD-huSortilin-HIS coated plates. Data was analyzed and EC₅₀ (nM) was calculated using graphed Prism. Commercially available goat anti-huSortilin (R&D Biosystems) was used as a positive control. Results are depicted in FIG. 8.

B1: humanized 8H24 hu8H24VHv1/hu8H24VLv1 (antibody, V domains shown)
VH: QAQLVQSGAEVKKPGSSVKVSCKASGYTFTSYSMHWVRQAPGQGLEWIGAIYPGNDATSYNQKFKGRATLTVDKSTSTAYMELSSLRSEDTAVYFCAREGYYGSSFEAWFASWGQGTTVTVSS
VL: DVVMTQTPLSLPVTPGEPASISCRSSQSIVHSNGNTYLEWYLQKPGQSPQLLIYKVSNRFSGVPDRFSGSGSGTDFTLKISRVEAEDVGVYYCFQGSHVLPTFGGGTKVEIK
notes: Human IgG; also called 8H24H1L1
As for B1, in test [1], the Kd was determined as 2.22 nM, the koff came to 0.00141 s⁻¹ and the kon worked out at 637000 M⁻¹ s⁻¹. In test [2], the EC50 was 0.14 µg/mL.

B2: humanized 8H24 hu8H24VHv1/hu8H24VLv2 (antibody, V domains shown)
VH: B1 VH
VL: B1 VL with L9S, K79T
notes: Human IgG; also called 8H24H1L2; hu8H24H1L2
For B2, in test [1], the Kd came out at 2.98 nM, the koff was 0.00134 s⁻¹ and the kon was 450000 M⁻¹ s⁻¹. For the same molecule, the EC50 in test [2] came out at 0.1 µg/mL.

B3: humanized 8H24 hu8H24VHv2/hu8H24VLv2 (antibody, V domains shown)
VH: B1 VH with K12V
VL: B1 VL with L9S, K79T
notes: Human IgG; also called 8H24H2L2
On to B3, for which, in test [1], the Kd came to 3.22 nM, the koff amounted to 0.0015 s⁻¹ and the kon came out at 466000 M⁻¹ s⁻¹. In addition, the EC50 in test [2] was determined as 0.07 µg/mL.

B4: humanized 8H24 hu8H24VHv2/hu8H24VLv1 (antibody, V domains shown)
VH: B1 VH with K12V
VL: B1 VL
notes: Human IgG; also called 8H24H2L1
As for B4, in test [1], the Kd came out at 2.29 nM, the koff was determined as 0.00157 s⁻¹ and the kon came out at 684000 M⁻¹ s⁻¹. Also, in test [2], the EC50 was determined as 0.06 µg/mL.

B5: humanized 5E20 hu5E20VHv5/hu5E20VLv4 (antibody, V domains shown)
VH: EVQLVESGGGLVQPGGSLRLSCAASGFTFSTYGMSWVRQAPDKRLEWVAIISSGGSYTYYSDTVKGRFTISRDNSKNSLYLQMNSLKAEDTAVYYCSRSSSHWYFDVWGQGTLVTVSS
VL: DIQMTQSPSSVSASVGDRVTITCHASQGISSNIGWLQQKPGKAFKGLIYHGTNLKDGVPSRFSGSGSGADFTLTISSLQPEDFADYFCVQYAQFPYTFGQGTKVEKR
notes: Human IgG; also called 5E20H5L4
With B5, in test [1], the Kd was 5.46 nM, the koff turned out to be 0.00115 s⁻¹ and the kon was 211000 M⁻¹ s⁻¹. Also, in test [2], the EC50 amounted to 0.05 µg/mL.

B6: humanized 5E20 hu5E20VHv7/hu5E20VLv4 (antibody, V domains shown)
VH: B5 VH with A40T, K87R
VL: B5 VL
notes: Human IgG; also called 5E20H7L4; hu5E20H7L4
With B6, in test [1], the Kd worked out at 5.02 nM, the off-rate (koff) came to 0.0011 s⁻¹ and the kon came to 218000 M⁻¹ s⁻¹. Also, the EC50 in test [2] was found to be 0.04 µg/mL.

B7: humanized 5E20 hu5E20VHv7/hu5E20VLv3 (antibody, V domains shown)
VH: B5 VH with A40T, K87R
VL: B5 VL with D85T
notes: Human IgG; also called 5E20H7L3
With B7, in test [1], the Kd came out at 4.18 nM, the koff was 0.00108 s⁻¹ and the kon was 259000 M⁻¹ s⁻¹. In addition, in test [2], the EC50 turned out to be 0.06 µg/mL.

B8: chimeric 5E20 (antibody, human IgG1, kappa, L234A L235A, V domains shown)
VH: EVQLVESGGDLVKPGGSLKLSCAAPGFTFSTYGMSWVRQTPDKRLEWVAIISSGGSYTYYSDTVKGRFTISRDNAKNTLYLQMSSLKSEDTAMYYCSRSSSHWYFDVWGTGTTVTVSS
VL: DILMTQSPSSMSVSLGDTVSITCHASQGISSNIGWLQQKPGKSFKGLIYHGTNLKDGVPSRFSGSGSGADFSLTISSLESEDFADYFCVQYAQFPYTFGGGTKLEIKR
notes: The entries are described as 'a chimeric 5E20 heavy chain' and 'light chain'
B8: the Kd in test [1] worked out at 0.66 nM. In test [2], the EC50 came out at 0.07 µg/mL.

B9: mouse monoclonal antibody 9N18 (antibody, mouse IgG2b, V domains shown)
VH: EIQLQQSGPELVKPGASVKISCKASGYSFTGYYMNWVKQSPEKSLEWIGEINPITGGTTYNQNFKAKATLTVDKSSSTAYLQLRSLTSEDSAVYYCASDYFGSNSWFAYWGQGTLVTVSA
VL: DVLMTQTPLSLPVSLGDQASISCRSSQSIVHRNGNTYLEWYLQKPGQSPKLLIYKVSNRFSGVPDRFSGSGSGTDFTLRISRVEAEDLGVYYCFQGSHVPYTFGGGTKLEIK
notes: mouse IgG2b, kappa
Regarding B9, the “% Blocking at 7.4nM mAb” value in test [3] stood at 65%. In test [4], the “% Max blocking at 11nM mAb” value turned out to be 45%. In addition, the EC50 in test [5] was found to be 0.8 nM.
